Measurements published in patent USRE46585 (LABORATOIRE FRANCAIS DU FRACTIONNEMENT ET DES …, dated 2017).
Numbering of substitutions follows the chain as printed. Read-outs that look alike come from different tables or passages of the source.

Experiments:
[1] = biological target: T1, FcRn-p3 fusion protein (human, UniProt P55899 24-297; P61769 21-119); assay: phage ELISA pH6
T1 construct: baculovirus expressed; coated on ELISA wells; not shown: amino terminal part of bacteriophage p3 protein and CVDE protein

[2] = biological target: T1, FcRn-p3 fusion protein; assay: phage ELISA pH6; remark: listed apart in the source
[3] = biological target: T1, FcRn-p3 fusion protein; assay: phage ELISA pH6 (est.)
[4] = biological target: T1, FcRn-p3 fusion protein; assay: phage ELISA pH6 (est.); remark: listed apart in the source
[5] = biological target: T1, FcRn-p3 fusion protein; assay: phage ELISA pH6 (est.); remark: listed apart in the source
[6] = biological target: T1, FcRn-p3 fusion protein; assay: ELISA pH6, soluble Fc on coated FcRn-p3
[7] = biological target: T2, recombinant soluble human FcRn (human, UniProt P55899 24-297; P61769 21-119); assay: SPR pH6, immobilized FcRn, steady state
T2 construct: amine-coupled to the SPR chip

[8] = biological target: T1, FcRn-p3 fusion protein; assay: ELISA pH6, soluble Fc on coated FcRn-p3; remark: listed apart in the source
[9] = biological target: T2, recombinant soluble human FcRn; assay: SPR pH6, immobilized FcRn, steady state; remark: listed apart in the source
[10] = biological target: T1, FcRn-p3 fusion protein; assay: phage ELISA pH6; remark: listed apart in the source
[11] = biological target: T1, FcRn-p3 fusion protein; assay: phage ELISA pH6; remark: listed apart in the source

T1 sequence (P55899 24-297, chain 1 of 2): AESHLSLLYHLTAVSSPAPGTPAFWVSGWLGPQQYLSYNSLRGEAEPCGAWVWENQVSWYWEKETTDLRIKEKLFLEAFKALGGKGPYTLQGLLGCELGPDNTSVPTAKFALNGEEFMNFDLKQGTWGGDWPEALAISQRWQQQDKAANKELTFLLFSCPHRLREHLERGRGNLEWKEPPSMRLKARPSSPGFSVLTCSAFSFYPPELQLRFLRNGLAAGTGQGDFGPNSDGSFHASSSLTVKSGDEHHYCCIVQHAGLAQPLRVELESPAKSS
T1 sequence (P61769 21-119, chain 2 of 2): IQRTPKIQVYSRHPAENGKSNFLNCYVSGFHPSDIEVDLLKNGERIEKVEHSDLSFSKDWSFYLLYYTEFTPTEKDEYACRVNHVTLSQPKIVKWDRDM
T2 sequence (P55899 24-297, chain 1 of 2): as the sequence (P55899 24-297, chain 1 of 2) above
T2 sequence (P61769 21-119, chain 2 of 2): as the sequence (P61769 21-119, chain 2 of 2) above

B1: C6A_69 (other)
chain: CPPCPAPELLGGPSVFLFPPKPKDTLMISRTPEVTCVVVDVSHEDPEVKFNWYVDGVEVHNAKTKPREEQYNSTYRVVSVLAVLHQDWLDGKEYKCKVSNKALPVPIEKTISKAKGQPREPQVYTLPPSRDELTKNQVSLTCLVKGFYPSDIAVEWVSNGQPETNYKTTPPVLDSDGSFFLYSKLTVDKSRWQQGNVFSCSVMHEALHYHYTQKSLSLSPGK
notes: EU numbering
Q: B1 was tested. Which Ratio/Fc-H [1] did it give?
A: 8.9 fold

Q: What about the Ratio/Fc-H [2] of the same binder?
A: 8.9 fold

Q: What about the “phage-ELISA ratio/WT” value [3] of the same binder?
A: 28.4 fold

Q: What about the Ratio/Fc-WT [4] of the same binder?
A: 28.4 fold

Q: And the Ratio/FWT [5]?
A: 28.4 fold

B2: T5A_94 (soluble recombinant Fc polypeptide) (other)
chain: B1 chain with V39E, A82T, D90N, V105A, A153T, V157E, T164N, P171L, Y209N
notes: EU numbering; E. coli periplasmic expression; not shown: C-terminal 6xHis tag and V5 tag
Q: For B2, which EC50 [6] is on record?
A: 166 nM

Q: And the Kd [7]?
A: 13.7 nM

B3: C6A_72 (soluble recombinant Fc polypeptide) (other)
chain: B1 chain with T25A, A82T, D90N, V105A, V157E, T164K
notes: as for B2
Q: Which results are given for B3?
A: EC50 [6]: 7.8 nM; ELISA ratio/Fc-WT (Fc-WT EC50 / variant EC50) [6]: 59 fold; Kd [7]: 12.4 nM; SPR Ratio/Fc-WT (Fc-WT Kd / variant Kd) [7]: 2.4 fold

B4: C6A_74 (soluble recombinant Fc polypeptide) (other)
chain: B1 chain with V34I, A82T, V105A, V157E, T164N
notes: as for B2
Q: For B4, which EC50 [6] is on record?
A: 7.3 nM

Q: What about the Kd [7] of the same binder?
A: 5.9 nM

B5: C6A_72 (other)
chain: B1 chain with T25A, A82T, D90N, V105A, V157E, T164K
notes: EU numbering
Q: How did the Ratio/Fc-H [1] turn out when B5 was run?
A: 8 fold

Q: What about the Ratio/Fc-H [2] of the same binder?
A: 8 fold

Q: And the “phage-ELISA ratio/WT” value [3]?
A: 25.7 fold

Q: And the Ratio/Fc-WT [4]?
A: 25.7 fold

Q: And the Ratio/FWT [5]?
A: 25.7 fold

B6: T5A_81 (other)
chain: B1 chain with V39E, A82T, D90N, V105A, A153V, V157E, T164N, R191K, Y209N
notes: EU numbering
Q: How did the Ratio/Fc-H [1] turn out when B6 was run?
A: 4.6 fold

Q: What about the Ratio/Fc-H [2] of the same binder?
A: 4.6 fold

Q: What about the “phage-ELISA ratio/WT” value [3] of the same binder?
A: 14.9 fold

Q: What about the Ratio/Fc-WT [4] of the same binder?
A: 14.9 fold

Q: What about the Ratio/FWT [5] of the same binder?
A: 14.9 fold

B7: S3A_07 (soluble recombinant Fc polypeptide) (other)
chain: B1 chain with V39E, A82T, D90N, V105A, A153V, V157G, T164N, Y209N
notes: as for B2
Q: B7 was tested. Which “Fc-rec-ELISA Ratio/WT” value [8] did it give?
A: 25.3 fold

Q: What about the “SPR Ratio/Fc-WT (Fc-WT Kd / variant Kd)” value [9] of the same binder?
A: 5.2 fold

B8: C6A_69 (soluble recombinant Fc polypeptide) (other)
chain: B1 chain
notes: as for B2
Q: B8 was tested. Which EC50 [6] did it give?
A: 3.7 nM

Q: What about the “ELISA ratio/Fc-WT (Fc-WT EC50 / variant EC50)” value [6] of the same binder?
A: 124 fold

Q: What about the Kd [7] of the same binder?
A: 7.2 nM

Q: What about the “SPR Ratio/Fc-WT (Fc-WT Kd / variant Kd)” value [7] of the same binder?
A: 4.2 fold

B9: S3A_07 (other)
chain: B1 chain with V39E, A82T, D90N, V105A, A153V, V157G, T164N, Y209N
notes: EU numbering
Q: Which “phage-ELISA Ratio/Fc-WT” value [10] does the source give for B9 here?
A: 3.5 fold

Q: And the Ratio/Fc-WT [11]?
A: 3.5 fold

B10: T5A_78 (soluble recombinant Fc polypeptide) (other)
chain: B1 chain with V39E, A82T, D90N, V105A, V157E, Q161R, T164N, P171L, Y209S, K214R
notes: as for B2
Q: For B10, which Kd [7] is on record?
A: 12.4 nM

B11: T5A_81 (soluble recombinant Fc polypeptide) (other)
chain: B1 chain with V39E, A82T, D90N, V105A, A153V, V157E, T164N, R191K, Y209N
notes: as for B2
Q: What does the source list for B11?
A: EC50 [6]: 145 nM; ELISA ratio/Fc-WT (Fc-WT EC50 / variant EC50) [6]: 3 fold; Kd [7]: 22.7 nM; SPR Ratio/Fc-WT (Fc-WT Kd / variant Kd) [7]: 1.3 fold

B12: T5A_58 (soluble recombinant Fc polypeptide) (other)
chain: B1 chain with F16L, V39E, A82P, D90N, V105A, A153V, V157E, T164N, H208R, Y209N
notes: as for B2
Q: How did the Kd [7] turn out when B12 was run?
A: 15.4 nM

B13: C6A_66 (soluble recombinant Fc polypeptide) (other)
chain: CPPCPAPELLGGPSVFLFPPKPKDTLMISRTPEVTCVVVDVSHEDPEVKFNWYVDGVEVHNAKTKPREQYNSTYRVVSVLPVLHQDWLNGKEYKCKVSNKALPAPIEKTISKAKGQPREPQVYTLPPSRDELTKNQVSLTCLVKGFYPSDIAVEWESNGQPENNYKTTPPVLDSDGSFFLYSKLTVDKSRWQQGNVFSCSVMHEALHYHYTQKSLSLSPGK
notes: EU numbering; E. coli periplasmic expression; E294del is a deletion; not shown: C-terminal 6xHis tag and V5 tag
Q: B13 was tested. Which EC50 [6] did it give?
A: 4.9 nM
